{
  "source": "paper PMC11836289",
  "about": "“A humanized NOVA1 splicing factor alters mouse vocal communications”",
  "key": {"NOVA1hu (humanized)": {"biological_target": "T1, NOVA1hu (humanized) (UniProt Q9JKN6 1-507, I197V)", "T1 sequence": "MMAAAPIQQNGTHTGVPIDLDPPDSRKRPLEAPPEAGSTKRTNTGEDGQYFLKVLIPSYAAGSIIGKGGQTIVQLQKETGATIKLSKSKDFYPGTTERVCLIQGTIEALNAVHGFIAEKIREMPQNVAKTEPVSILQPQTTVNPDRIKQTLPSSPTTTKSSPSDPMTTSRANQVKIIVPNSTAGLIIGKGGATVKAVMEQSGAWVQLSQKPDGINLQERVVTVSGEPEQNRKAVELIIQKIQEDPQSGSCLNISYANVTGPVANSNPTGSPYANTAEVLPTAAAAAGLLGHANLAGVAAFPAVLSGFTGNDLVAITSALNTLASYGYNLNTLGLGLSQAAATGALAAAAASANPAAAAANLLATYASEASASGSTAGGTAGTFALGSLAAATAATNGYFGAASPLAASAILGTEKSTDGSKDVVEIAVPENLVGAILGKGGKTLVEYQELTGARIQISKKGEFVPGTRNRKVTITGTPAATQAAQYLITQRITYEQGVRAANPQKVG", "test": "EMSA; text prints 105.83 ± 8.3; figure and source data 105.3; 10 mM HEPES (pH not stated), 3 mM MgCl2, 150 mM NaCl, 5% glycerol, 0.1 mM DTT, 0.1 U/ul RNase OUT, 10 mg/ml yeast tRNA, 1 mg/ml poly dI-dC, 22 C, 60 min; protein 0.5-2 pmol, RNA 0.08 pmol per reaction; 8% native gel", "details": "protein: recombinant; tags: GST tag (N-term) cleaved by PreScission; pGEX6p1 remnant; label: 32P; hairpin"}, "NOVA1wt": {"biological_target": "T2, NOVA1wt (UniProt Q9JKN6 1-507)", "T2 sequence": "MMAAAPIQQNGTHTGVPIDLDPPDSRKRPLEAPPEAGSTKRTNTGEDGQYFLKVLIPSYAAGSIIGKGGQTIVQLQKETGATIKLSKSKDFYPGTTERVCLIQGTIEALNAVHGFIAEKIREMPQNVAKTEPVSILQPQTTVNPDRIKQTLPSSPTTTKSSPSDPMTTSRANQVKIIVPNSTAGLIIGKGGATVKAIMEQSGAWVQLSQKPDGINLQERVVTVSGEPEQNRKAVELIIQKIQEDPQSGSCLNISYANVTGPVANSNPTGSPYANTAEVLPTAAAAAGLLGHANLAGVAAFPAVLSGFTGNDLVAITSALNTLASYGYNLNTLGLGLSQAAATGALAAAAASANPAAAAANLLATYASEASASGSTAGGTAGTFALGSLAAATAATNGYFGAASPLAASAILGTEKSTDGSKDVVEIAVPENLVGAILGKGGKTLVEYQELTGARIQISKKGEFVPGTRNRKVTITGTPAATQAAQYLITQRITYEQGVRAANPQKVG", "test": "EMSA; 10 mM HEPES (pH not stated), 3 mM MgCl2, 150 mM NaCl, 5% glycerol, 0.1 mM DTT, 0.1 U/ul RNase OUT, 10 mg/ml yeast tRNA, 1 mg/ml poly dI-dC, 22 C, 60 min; protein 0.5-2 pmol, RNA 0.08 pmol per reaction; 8% native gel", "details": "protein: recombinant; tags: GST tag (N-term) cleaved by PreScission; pGEX6p1 remnant; label: 32P; hairpin"}},
  "data": [
    {"binder": "UCAU RNA probe (stem-loop) (structured_RNA) RNA: CCUUAUCAUGCUGACUCACGUCAUUUCAUCUCAUCAAGGGAGUCAGUGGGAUA", "values": [
      {"measurement": "Kd", "setting": "NOVA1hu (humanized)", "value": "105 ± 8.3", "unit": "nM"},
      {"measurement": "Kd", "setting": "NOVA1wt", "value": "105 ± 11.6", "unit": "nM"}
    ]}
  ]
}
